Measurements from US20150246136A1 (Bayer, published 2015).
Each block holds one binder with its values, some of them ahead of it.

What was measured:
Carboanhydrase IX = Carboanhydrase IX (Homo sapiens, UniProt Q16790 38-459); assay: cell-based or functional assay
[1] = target: Mesothelin (SwissProt reference Q13421-3) (Homo sapiens, UniProt Q13421 37-622); assay: cell-based or functional assay

B1: Example 313 (antibody, human IgG1, kappa, V domains shown)
VH: QVELVESGGGLVQPGGSLRLSCAASGFTFSSYGMSWVRQAPGKGLEWVSGISSLGSTTYYADSVKGRFTISRDNSKNTLYLQMNSLRAEDTAVYYCARTGSPGTFMHGDHWGQGTLVTVSS
VL: DIQMTQSPSSLSASVGDRVTITCRASQDINNYLSWYQQKPGKAPKLLIYGASNLQSGVPSRFSGSGSGTDFTLTISSLQPEDFAVYYCQQYYGRPTTFGQGTKVEIKR
modifications: linker-toxophore on cysteine S
- MIAPaCa 2/CA9+ IC50 (Carboanhydrase IX): 3.8 nM

B3: Example 315 (antibody, human IgG1, kappa, V domains shown)
VH: B1 VH
VL: B1 VL
modifications: linker-toxophore on cysteine S
- MIAPaCa 2/CA9+ IC50 (Carboanhydrase IX): 3.2 nM

B4: Example 321 (antibody, human IgG1, kappa, V domains shown)
VH: B1 VH
VL: B1 VL
modifications: linker-toxophore on cysteine S
- MIAPaCa 2/CA9+ IC50 (Carboanhydrase IX): 220 nM

B6: Example 326 (antibody, human IgG1, kappa, V domains shown)
VH: B1 VH
VL: B1 VL
modifications: linker-toxophore on lysine NH
- MIAPaCa 2/CA9+ IC50 (Carboanhydrase IX): 2 nM

B9: Example 314 (antibody, human IgG1, kappa, V domains shown)
VH: B1 VH
VL: B1 VL
modifications: linker-toxophore on lysine NH
- MIAPaCa 2/CA9+ IC50 (Carboanhydrase IX): 150 nM

B10: Example 320 (antibody, human IgG1, kappa, V domains shown)
VH: B1 VH
VL: B1 VL
modifications: linker-toxophore on cysteine S
- MIAPaCa 2/CA9+ IC50 (Carboanhydrase IX): 19 nM

B11: Example 323 (antibody, human IgG1, kappa, V domains shown)
VH: B1 VH
VL: B1 VL
modifications: linker-toxophore on lysine NH
- MIAPaCa 2/CA9+ IC50 (Carboanhydrase IX): 238 nM

B12: Example 369, conjugate of anti-mesothelin antibody MF-Ta (antibody, human IgG1, lambda, V domains shown)
VH: QVELVQSGAEVKKPGESLKISCKGSGYSFTSYWIGWVRQAPGKGLEWMGIIDPGDSRTRYSPSFQGQVTISADKSISTAYLQWSSLKASDTAMYYCARGQLYGGTYMDGWGQGTLVTVSS
VL: DIALTQPASVSGSPGQSITISCTGTSSDIGGYNSVSWYQQHPGKAPKLMIYGVNNRPSGVSNRFSGSKSGNTASLTISGLQAEDEADYYCSSYDIESATPVFGGGTKLTVLG
modifications: toxophore-linker on Lys NH, sites not given
- IC50 (nM), HT29 meso+ cells, MTT proliferation assay [1]: 0.02 nM

B13: Example 379 (Diastereomer 1), conjugate of anti-mesothelin antibody MF-Ta (antibody, human IgG1, lambda, V domains shown)
VH: B12 VH
VL: B12 VL
modifications: toxophore-linker on Lys NH, sites not given
- IC50 (nM), HT29 meso+ cells, MTT proliferation assay [1]: 7 nM

B15: Example 380 (Diastereomer 2), conjugate of anti-mesothelin antibody MF-Ta (antibody, human IgG1, lambda, V domains shown)
VH: B12 VH
VL: B12 VL
modifications: toxophore-linker on Lys NH, sites not given
- IC50 (nM), HT29 meso+ cells, MTT proliferation assay [1]: 15 nM

Now from value to binder:

- MIAPaCa 2/CA9+ IC50 (Carboanhydrase IX): 172 nM
B2: Example 322 (antibody, human IgG1, kappa, V domains shown)
VH: B1 VH
VL: B1 VL
modifications: linker-toxophore on lysine NH

- MIAPaCa 2/CA9+ IC50 (Carboanhydrase IX): 137 nM
B5: Example 325 (antibody, human IgG1, kappa, V domains shown)
VH: B1 VH
VL: B1 VL
modifications: linker-toxophore on cysteine S

- MIAPaCa 2/CA9+ IC50 (Carboanhydrase IX): 19 nM
B7: Example 327 (antibody, human IgG1, kappa, V domains shown)
VH: B1 VH
VL: B1 VL
modifications: linker-toxophore on cysteine S

- MIAPaCa 2/CA9+ IC50 (Carboanhydrase IX): 11 nM
B8: Example 324 (antibody, human IgG1, kappa, V domains shown)
VH: B1 VH
VL: B1 VL
modifications: linker-toxophore on cysteine S

- IC50 (nM), HT29 meso+ cells, MTT proliferation assay [1]: 0.04 nM
B14: Example 378, conjugate of anti-mesothelin antibody MF-Ta (antibody, human IgG1, lambda, V domains shown)
VH: B12 VH
VL: B12 VL
modifications: toxophore-linker on Lys NH, sites not given

- IC50 (nM), HT29 meso+ cells, MTT proliferation assay [1]: 1.6 nM
B16: Example 377, conjugate of anti-mesothelin antibody MF-Ta (antibody, human IgG1, lambda, V domains shown)
VH: B12 VH
VL: B12 VL
modifications: toxophore-linker on Cys sulfur, sites not given
